Measurements published in the DeepSol protein solubility set.

Assay: soluble on expression in E. coli; label from the status in PepcDB or PDB records

Sequence | soluble on expression in E. coli
QPLPSAALRRCPPPARVGGRWVSAEKVNEGGSGGGGSQRLTRRARSTARVPAPGTMDAPRASAAKPPTGRKMKARAPPPPGKAATLHVHSDQKPPHDGALGSQQNLVRMKEALRASTMDVTVVLPSGLEKRSVLNGSHAMMDLLVELCLQNHLNPSHHALEIRSSETQQPLSFKPNTLIGTLNVHTVFLKEKVPEEKVKPGPPKVPEKSVRLVVNYLRTQKAVVRVSPEVPLQNILPVICAKCEVSPEHVVLLRDNIAGEELELSKSLNELGIKELYAWDNRRETFRKSSLGNDETDKEKKKFLGFFKVNKRSNSKGCLTTPNSPSMHSRSLTLGPSLSLGSISGVSVKSEMKKRRAPPPPGSGPPVQDKASEKVSLGSQIDLQKKKRRAPAPPPPQPPPPSPLIPNRTEDKEENRKSTMVSLPLGSGSHCSPDGAPQVLSEAEETVSVGSCFASEDTTEDSGVMSSPSDIVSLDSQQDSMKYKDKWATDQEDCSDQDLAGTPDLGPQKSPLWEKNGSENSHLRTEKAVTASNDEEDLLIAGEFRKTLAELDEDLEEMEDSYETDTSSLTSSIHGASNHCPQDAMIPHGDTDAIPVTFIGEVSDDPVDSGLFSNRNNNAGSFDSEGVASRRDSLAPLQAEHSQPHEKAREEVPALHPASHDVGKGIRVALSNISKDGNLMETAPRVTSFASNLHTDNLNAKVKDKVYGCADGERTQATERVNSQPVNEKDSNDKNAALAPTSWHQRGQNPGKSYRLKHGLTTYKIIPPKSEMRCYDRDVSLSTGAIKIDELGNLVSPHATGIRIISLSSSVPEAESQPIGKVREFWRCNSVEKHLGRPSESSARGPPSTPVPTQTQNPESRLQADPKPISPQQKSAHHEGRNPLGEGRNQPPTMGMGHVRVPAAHTTEVTFLKPQRRTSSQYVASAIAKRIGAPKVHADVVRPHGYAEKGYAGKAPVLAAPPVTVKDDRTSSPHSETQGWKDGAQWPCVTPPNNHGEDLAVGAPPRGEVIGPHRKLSTQDRPAAIHRSSCFSLVQSSQRDRVSVGQSCGFSGKQSTSSQEASSASEPRRAPDGTDPPPPHTSDTQACSRELVNGSVRAPGHGEPSHPPGGSGTESHILLEREEKPSVFSTDGNETDSIWPPSIFGPKKKFKPVVQRPVPKDTSLHSALMEAIHSAGGKDRLRKTAEHTGEGRPAKLSYTEAEGERSALLAAIRGHSGTCSLRKVASSASEELQSFRDAALSAQGSESPLLEDLGLLSPPAIPPPPPPPSQALSAPRTASRFSTGTLSNTADARQALMDAIRSGTGAARLRKVPLLV | soluble
MGSDKIHHHHHHMKGNAPVLAAVDISKGFRVYRAPHQRMLQAIWGERKKFYSEFWALRNVSFQVFPGEVVGVIGCNGSGKSTLLQILAGTLRPTSGQVVRPERVAALLELGAGFNMEYTGRENIIFNAMLLGLGEQEISERLDEIIQFADIGEFIDRPVRTYSSGMFVRLAFSIAAYVDADVLIVDEALAVGDAAFQFKCLNRLEELLLKGITILLVSHDIQLIKSYCSRAIYLSKGRVIFDGDCETATELYLRDSIETQRAEVRSGSLIASGEHGNSVIAYGNGQGRFLSIRMGVLDEARDYFDSGERVWVEVLVQFDLPVPEHPKITLTIRDQRGYNLYGINNLLLGKALNVEPDGRLRTRISFDCDLQAGEYALTFRLENSLSESVCELMDKKVNAAIFRVFNSPKCFDAVVNLHGAFEPVPFCCETRATQ | not soluble
QLLKVCMKLPKIDWYLGLSCPSNDMPLYLMRLFSRKPVVQMIHGPVGVARSSGYCLVKASAIYYLSNTRESLINALQAYLKTPKPATERYWSTLNASTFVNGLSRERWPKQANPISNRVFWAASLLKWKNVDLLLDALTLENTTTIQSTICYIKPNVPGVEYSTPDFNTKGVDWYESPNNLNELRAQCGVFVSTSVNEP | not soluble
MPSMAEIYVKELRERDPATVDTLFLDNAEDGQIGGLTDQLINLEMLSMVKCGLTTLAGFPTLPALTYLDISDNQLGDNASFDVLVKNAPDLKKITLASNKLSLDNLRCLKVLPNLFELDLSNNPSLGLLEDYREKMFEMIPSLKILDGCDVDGEEVEEEFAGEGGEDSEEGSGDEDGPGLSYLEKSQFSDDETDDYAPEGGDAEPRGTKRGASDNGEEPDNKKAAGDDE | soluble
MTTEAPVRVEDKLYQNRYLVDVGNAHIKVKPHTKPSPQLLALLKVCPAHCYELNSNGQVEVTPDGCVECGTCRVLAEGGGDIEWSYPRGGYGVLFKFG | not soluble
MGSDKIHHHHHHMKQAYIFDMDGTLFQTNRILGHALEDAFDFLRMNGRWTGKTPLAEYQTIMGVSLPEVWQTLLPGHSDEERALVDRIFQDALIRHIEQGQGALYSGAEATLQALKETGHPLYIASNGWKVYLTAIVRQYGLNRWLDGVYSIEDVASSQKSDLVAYILSEHQLTDMVVVGDRISDFQAAKVNRLPAVGCRFDFSNEAELEQADVIIDDLRELFQIDLKAVTK | not soluble
MSASFDRYVSFQHCDWEGRSERVMQRLQRHVEAAENPFWAYFAQKRAELRDKQGLDDLRILHNYLPTLRELLEDNGDLETLEMLEDLEANLM | not soluble
MSLTMAKTLYEKVFDAHVVYEGKNELPILYIDRHLIHEVTSPQAFSGLKMAKRRMARADLTLATIDHDVSTKSMDLNACSDMAKEQITTLMQNTKEFGVRLLGLGDKNQGIVHIVGPELGFTLPGVTLVCGDSHTATHGAFGALAFGIGTSEVEHVMATQTLKQAKLKTMKIECKGQFQKGVYTKDLILYLIAQYGTAKGTGYAIEFCGELIRNLSMEARMTLCNMAIEFGAKVGMIAPDEITFEYIKGKEFAPKGEEFQKYCEYWKSLRSDEGAKYDASITLDVSKIKPQISYGTNPSQVIGIDEKIPKISDFKNQSEQKSLLDALYYVNLEQDQVIEGVKIDIVFIGSCTNGRLEDLKIAADILKGRKIHKNVKALIVPGSMQVRKEAENLGLDKIFIEAGCEWRYAGCSMCLGMNDDKANSGQRVASTSNRNFVGRQGKGSITHLMSPASAAACAIEGVICDNRKYLGEGHHHHHH | soluble
DPATVFRLVAAEALTLTGADGTLVAVPADPDASAAEELVIVEVAGAVPAEVEASAIPVQDNAIGQAFRDRAPRRLDVLDGPGLGGPALVLPLRATDTVAGVLVAVQGSGARPFTAEQLEMMTGFADQAAVAWQLASSQRRMSELDILAD | soluble
MGSDKIHHHHHHMHLPNSQIYKNFGESMNPFDIMKASQIACCLEVSSFKPGNVHRNRDYRDIKYHHFINAGIAFGNVVYEAAQKDRDVGLYIKKAVIESKKWSPTNANLGIIMLHIPIAMAAGKLENFDENKLKENLKKIAENTTVEDALNVYDAINIAMAYVNKPKKGPDVTSEDAKKELIEKGLTLLDVYKISAEWDNISKEWVDNFKISFEGYNLLKKYYDELNNINLAVTKTFLNLLAKYPDTLIARKRGFETALKVSKMAEDVLNNFKEEKVKEFDKYLSKEGNKLNPGTTADLIASSLMIFILDRIDKRETILW | not soluble
MMTLIRITSADDSRLNRLIPLYEESFPESERRKIGQLKRMIENHAPMYFNAIECDGELSGMFVYWDMGDFYYLEHLAVFPEMRNKKIGQQVLDYVAEHLKGVRLLEVEPTEDEMTTRRVNYYRRNGYEVLDKTYVQPSYHALEDACPLWIMGSEDSPRLAEQVERIKEEVYRQQVG | not soluble
MENIFLKRLEFKAFEEDSVFSKIEGLNKFNSLNFKKPITFFSGENGTGKSTLLEAIAVNWGFNPEGGSINFNFSTKDTHLDLHNYLTVGKSVKRATDGFFLRAESFYNVATYAENIDLDFSEYGDKSLHHQSHGESFLNLVNHRFRGNGLYLLDEPEAALSPQRQLALMISIKKLIDEGSQFIIVSHSPILLAMPDSQIISFDKDSPLEITYEESMPYEITSLFLNNKNRILSHLFAELEHHHHHH | soluble
MKALERTVTVKGLAEKEVKANIAIWPINFTEVDNNLPKLYETVQLKTDKVVAFLKERGFSDSEITISLPSIEDRQAQGYVDPNVKYRYSAKVNLSVYTSQIDLMLSSRKQMINLVKEGIAIASQDYENRTEFLFTQLNDVKPTMVQEATQNAREVAEKFAKDSESRLGKIKSASQGQFTISDRDSSTPYIKQIRIVSTLTYYLNDLEHHHHHH | not soluble
SDESDLPSAMPAVPAFGVEERNMVSGVLTLAERSIRSIMTPRTDVSWVNIDDDAATIRQQLTAAPHSFFPVCRGSLDEVVGIGRAKDLVADLITEGRVRRNRLRDPIIVHESIGILRLMDTLKRSRGQLVLVADEFGAIEGLVTPIDVFEAIAGEFPDEDELPDIVAESE | soluble
MGSDKIHHHHHHMTSAYCTVLSKGRLYQAVALFKSLEQVDQDSPIFILCMDEDTHRVLQKLKMKQLNLVPVAALENELLLKLKETRDQSEYCWTMKPIFLQAVLNSNPELERVTYIDGDLFFYADPSPIFENQPDCSVLLSRGDIVIPSFEKEQIDMLQRLLGRYNSGFISFKHDDAGTDCLEWWKERCLEECKNAPGEGKFGDQGYLDYMSELFPNVCDITTPGVNIGHWNYGQHTFSWKDGRIVLEDGSPLIFYHFSGYRIVSINEIKQIHETTRTDLPFVHELYQETLPHIIQHMQTLDPEFNGFASKDDNK | not soluble
MSNFEKRNRKMAEKNIRKPKQERSIEKRNKILQVAKDLFSDKTYFNVTTNEIAKKADVSVGTLYAYFASKEDILTALLKRYNDFFLTTIFADINSQDSLDRFKKNPKEWLNVLINQLLAAEDKIFHAQIEMLAYAIPQAKALLEEHNNNLKNLTYKCLLYYSDQAANPSFKTLSLVVFDFISALVDELLYHEHTQEEAHQIKKTGIDSLDLIIKSYL | soluble
MKFLELNKKRHATKHFTDKLVDPKDVRTAIEIATLAPSAHNSQPWKFVVVREKNAELAKLAYGSNFEQVSSAPVTIALFTDTDLAKRARKIARVGGANNFSEEQLQYFMKNLPAEFARYSEQQVSDYLALNAGLVAMNLVLALTDQGIGSNIILGFDKSKVNEVLEIEDRFRPELLITVGYTDEKLEPSYRLPVDEIIEKR | soluble
SLVKSTSCTTIDFMNMSQLTERTFTSSESLSSLSLFLSLARGQCRPGKFWHRRSFRQKFLLRSLIMPRLSVEWMNELSHWPNLNVLLTRQPRLPVRLHRPYLAANLSRKQLLEALRYHYALLRGCMSAEEFSLYLNTPGLQLAKLEGKNGEQFTLELTMMISMDKEGDSTILFRNSEGIPLAEITFTLCEYQGKRTMFIGGLQGAKWEIPHQEIQNATKACHGLFPKRLVMEAACLFAQRLQVEQIIAVSNETHIYRSLRYRDKEGKIHADYNAFWESVGGVCDAERHYRLPAQIARKEIAEIASKKRAEYRRRYEMLDAIQPQMATMFRG | not soluble
MEITPKRYWRRWRGYEKLDGSSETTSGRRKGKRVKMDPTRKKRFWRIKIVPKLRILKTASPKKFLVWLRDSYVKMMMRLANSRVVGSSGYGGSGFGSGQMKEYDEKMLVEIYKSILMVQAQGNLVHRDTPNNNLKLPSEPAVVSVVSSVVTC | not soluble
AETTVKPTKLAVIGAGAVGSTLAFAAAQRGIAREIVLEDIAKERVEAEVLDMQHGSSFYPTVSIDGSDDPEICRDADMVVITAGPRQKPGQSRLELVGATVNILKAIMPNLVKVAPNAIYMLITNPVDIATHVAQKLTGLPENQIFGSGTNLDSARLRFLIAQQTGVNVKNVHAYIAGEHGDSEVPLWESATIGGVPMSDWTPLPGHDPLDADKREEIHQEVKNAAYKIINGKGATNYAIGMSGVDIIEAVLHDTNRILPVSSMLKDFHGISDICMSVPTLLNRQGVNNTINTPVSDKELAALKRSAETLKETAAQFGF | soluble
MSKADPSKGPAPACPGPDPAPRRPTRYVVPPGAVDTHAHVIGLPPTYPFVDARSYTPPAATPESYLAMLDATGMTYGVVVQVSVHGTDNRLMLETLQAHRDRLKGIAVIPLGLPDKELAALKDAGVVGLRLNILYGGGIGFERVGEYAAMAKELGWHLQFLIDAKDLVPLAPQLGGLPVPFIVDHWGHFPVSRGIDDPGFQTLVSLVRDGAWVKLSGAYRNTVAGFPYLDTIPFARLLHETAPDRCVWGSDWPHVATWQHMMNVGELLDLLADWVPDAAARDRVFTDNAYRLYGFTPVQGLEHHHHHH | not soluble
